Patent publication US20170065702A1 (CANGENE, published 2017)
Changes are numbered by the printed parent chain.

B1: CAN54G2 (antibody, V domains shown)
VH: QVQLQQSGTELVRPGTSVKISCKASGYDFTNFWLGWIKQRPGHGLEWIGDIYPGGDNTYYNEKFKGKVTLTADKSSNTAYMQFSSLTSEDSAVYFCFMILYTLDYWGQGTSVTVSS
VL: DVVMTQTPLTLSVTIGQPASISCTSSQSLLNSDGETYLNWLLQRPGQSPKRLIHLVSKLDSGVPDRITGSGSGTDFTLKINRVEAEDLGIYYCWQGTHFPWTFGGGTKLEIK
B2: CAN40G1 (antibody, V domains shown)
VH: EVQLQQSGPELVKPGASVKISCRTSGYTFTEYTIHWVKQSRGKSLEWIGGINPNHGGTLYNQKFKVKATLTVDKSSSTAYMELRSLTSEDSAVYYCARFTYDYWGQGTTLTVSS
VL: DIVLTQSPASLAVSLGQRASISCKASQSVDHDGDSYMNWYQQKPGQPPKLLIYATSNLESGIPARFSGSGSGTDFTLNIHPVEEEDAATYYCQQSYEVPLTFGAGTKLELK
B3: CAN30G3 (antibody, V domains shown)
VH: QVQLKESGPGLVAPSQSLSITCTVSGFSLTDYGITWIRQPPGKGLEWLGVIWGGGSAYYNLVLKSRLSISKDNSKSQVFLKMNSLQTDDTAMYYCAKHRTLITTAMDYWGQGISVTVSS
VL: DVLMTQTPLSLPVSLGDQASISCRSSQNIVHSNGNTYLEWYLQKSGQSPKLLIYKVSNRFSGVPDRFSGSGSGTDFTLKISRVEAEDLGVYYCFQGSHFPWTFGGGTKLEIK
B4: CAN30G4 (antibody, V domains shown)
VH: EVKLVESGGGLVKSGGSLKLSCAVSGFTFSTYAMSWVRQIPEKRLEWVATISNGGSYIYYSDSVKGRFTISRDNAKNTLYLQMSSLRSEDTAMYYCARHRESYRYDWFAYWGQGTLVTVSA
VL: B3 VL with N33D, S45P, V56F, F99V, W101P, G105A, I111L
B5: CAN30G1 (antibody, V domains shown)
VH: QIQLVQSGPELKKPGETVKISCKASGYTFTNYGMNWVKQAPGKGLKWMGWINTYTGKPTYVDDFKGRFAFSLETSANTAYLQINNLKNEDTATYFCESGGYDEDYWGQGTTLTVSS
VL: ENVLTQSPAIMSASPGEKVTMTCSASSSVTYMHWYQQKSSTSPKLWIYDTSKLASGVPGRFSGSGSGNSYSLTISSMEAEDVATYYCFQGSGYPYTFGGGTKLEIK
B6: CAN30G5 (antibody, V domains shown)
VH: EVQLVESGGGLVQPKGSLKLSCAASGFAFNSYAMHWVCQAPGKGLEWVARIRIKSGNYATSYAGSVTDRFTVSRDDSQNLFYLQMNNLKTEDTAMYYCVREWEGAMDYWGQGTSVTVSS
VL: DIVLTQSPLSLPVSLGDQASISCRSSQSLVHSNGNTYLHWYLQKPGQSPNLLIYKVSNRFSGVPDRFSGSGSGTDFTLKISRVEAEDLGVYFCSQSTHVPWTFGGGTKLEIK

How the values were obtained:
MARV Musoke GPe[change] = MARV Musoke GPe[change] (Marburg virus, Musoke strain, UniProt P35253 19-636); experiment: cross reactivity with GPeΔmuc, summary table
MARV Angola GPe[change] = MARV Angola GPe[change] (Marburg virus, Angola strain, UniProt Q1PD50 19-636); experiment: cross reactivity with GPeΔmuc, summary table

| Binder | binding result (MARV Musoke GPe[change]) | binding result (MARV Angola GPe[change]) |
| --- | --- | --- |
| B1 | binds | binds |
| B2 | binds | binds |
| B3 | binds | binds |
| B4 | binds | binds |
| B5 | binds | binds |
| B6 | binds | binds |
